US20220169695A1 (published 2022)

Target: T1, NY-ESO-1 peptide on HLA-C*03:04 (human)
T1 peptide: LAMPFATPM
Assay: multimer staining
Source text: FIGS. 4A-4I are graphical representations of positive staining of Jurkat 76/CD8 cells transduced with C*03:04/NY-ESO-1₉₂₋₁₀₀ TCR genes with a cognate multimer. Jurkat 76/CD8 cells transduced with the C*03:04/NY-ESO-1₉₂₋₁₀₀ TCR (FIGS. 4B, 4E, and 4H) were stained with the C*03:04/NY-ESO-1₉₂₋₁₀₀ multimer (FIG. 4B). The C*03:04/HIV gag₁₆₄₋₁₇₂ multimer (FIGS. 4D, 4E, and 4F), C*07:02/MAGE-A1₂₈₉₋₂₉₇ TCR (clone CL2; FIGS. 4C, 4F, and 4I), and an unexchanged multimer (FIGS. 4G, 4H, and 4I) were employed as controls, as well as Jurkat 76/CD8 not transduced with a TCR (FIGS. 4A, 4D, and 4G). The percentage of multimer⁺ CD8⁺ cells is shown.
T cells (1×10⁵) were incubated for 30 minutes at 37° C. in the presence of 50 nM dasatinib (LC laboratories). The cells were then washed and incubated with 5-10 μg/ml of multimer for 30 minutes at room temperature, and R-phycoerythrin-conjugated AffiniPure Fab fragment goat anti-mouse IgG1 (Jackson ImmunoResearch Laboratories) was added for 15 minutes at 4° C. Next, the cells were washed three times and costained with an anti-CD8 mAb for 15 minutes at 4° C. Dead cells were finally discriminated using the LIVE/DEAD Fixable Dead Cell Stain kit.

binding result: recognises
B1: C*03:04/NY-ESO-1 92-100 TCR (TCR, V domains shown)
Valpha: AQSVTQPDIHITVSEGASLELRCNYSYGATPYLFWYVQSPGQGLQLLLKYFSGDTLVQGIKGFEAEFKRSQSSFNLRKPSVHWSDAAEYFCAGMDSNYQLIWGAGTKLIIKP
Vbeta: NAGVTQTPKFQVLKTGQSMTLQCAQDMNHNSMYWYRQDPGMGLRLIYYSASEGTTDKGEVPNGYNVSRLNKREFSLRLESAAPSQTSVYFCASSLPLGYEQYFGPGTRLTVT
